Tests used:
[1] = test system: SN12C cells; test: Internalization study by fluorescent immunocytochemistry (confocal microscopy); type: cell-based, human; conditions: 10 μg/ml, 1 h and 2 h at 37° C.
Method: Briefly, SN12C tumor cell line was cultured in RMPI1640 with 1% L-glutamine and 10% of FCS for 3 days before experiment. Cells were then detached using trypsin and plated in 6-multiwell plate containing coverslide in RPMI1640 with 1% L-glutamine and 5% FCS. The next day, 1613F12 was added at 10 μg/ml. Cells treated with an irrelevant antibody were also included. The cells were then incubated for 1 h and 2 h at 37° C., 5% CO2. For T 0 h, cells were incubated for 30 minutes at 4° C. to determine antibody binding on cell surface. Cells were washed with PBS and fixed with paraformaldehyde for 15 minutes. Cells were rinsed and incubated with a goat anti-mouse IgG Alexa 488 antibody for 60 minutes at 4° C. to identify remaining antibody on the cell surface. To follow antibody penetration into the cells, cells were fixed and permeabilized with saponin. A goat anti-mouse IgG Alexa 488 (Invitrogen) was used to stained both the membrane and the intracellular antibody. […] Cells were washed three times and nuclei were stained using Draq5. After staining, cells were mounted in Prolong Gold mounting medium (Invitrogen) and analyzed by using a Zeiss LSM 510 confocal microscope.

[2] = target: T1, rhMer-Fc (Homo sapiens, UniProt Q12866); test: ELISA binding on immobilized rhMer-Fc protein; conditions: starting concentration 5 μg/ml, 1/2 serial dilutions
T1 construct: purchased R and D Systems 891-MR
T1 sequence (Q12866 with tags, fused parts or gaps limits assumed): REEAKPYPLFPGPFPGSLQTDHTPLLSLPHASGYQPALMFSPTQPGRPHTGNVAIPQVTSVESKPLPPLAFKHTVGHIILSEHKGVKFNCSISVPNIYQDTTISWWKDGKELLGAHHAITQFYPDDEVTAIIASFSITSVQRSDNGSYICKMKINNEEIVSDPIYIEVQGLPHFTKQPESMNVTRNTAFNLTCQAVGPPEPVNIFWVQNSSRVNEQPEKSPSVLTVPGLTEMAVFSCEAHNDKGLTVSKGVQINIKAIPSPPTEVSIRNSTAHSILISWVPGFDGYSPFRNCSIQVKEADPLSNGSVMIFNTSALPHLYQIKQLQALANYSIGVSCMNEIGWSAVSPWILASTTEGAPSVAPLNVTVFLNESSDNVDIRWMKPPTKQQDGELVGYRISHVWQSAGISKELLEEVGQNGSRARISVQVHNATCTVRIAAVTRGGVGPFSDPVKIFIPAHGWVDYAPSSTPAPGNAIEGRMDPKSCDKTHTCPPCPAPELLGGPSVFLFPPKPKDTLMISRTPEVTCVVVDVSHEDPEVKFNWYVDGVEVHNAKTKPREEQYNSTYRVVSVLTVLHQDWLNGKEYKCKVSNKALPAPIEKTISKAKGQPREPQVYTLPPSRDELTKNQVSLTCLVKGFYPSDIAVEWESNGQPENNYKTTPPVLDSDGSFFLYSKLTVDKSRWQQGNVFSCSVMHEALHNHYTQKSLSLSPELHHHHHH
Method: Briefly, the recombinant human Axl-Fc (R and D systems, cat N° 154AL/CF), rhDtk (R and D Systems, cat N° 859-DK) or rhMer-Fc (R and D Systems, cat N° 891-MR) proteins were coated overnight at 4° C. to Immulon II 96-well plates and, after a 1 h blocking step with a 0.5% gelatine solution, 1613F12 was added for an additional 1 h at 37° C. at starting concentration of 5 μg/ml (3.33 10^−8M). Then ½ serial dilutions were done over 12 columns. Plates were washed and a goat anti-mouse (Jackson) specific IgG-HRP was added for 1 h at 37° C. Reaction development was performed using the TMB substrate solution. The isotype control antibody mIgG1 and the commercial anti-Axl Mab 154 antibody were also used in parallel. Coating controls were performed in presence of a goat anti-human IgG Fc polyclonal serum labelled with HRP (Jackson, ref 109-035-098) and/or in presence of a HRP-coupled anti-Histidine antibody (R and D Systems, ref: MAB050H).

[3] = target: T2, rhMer-Fc (R and D Systems, cat N° 891-MR) (human, UniProt Q12866 26-499, limits assumed); test: ELISA on coated protein
T2 construct: Bought protein; not shown: Fc of human IgG
T2 sequence (looked up): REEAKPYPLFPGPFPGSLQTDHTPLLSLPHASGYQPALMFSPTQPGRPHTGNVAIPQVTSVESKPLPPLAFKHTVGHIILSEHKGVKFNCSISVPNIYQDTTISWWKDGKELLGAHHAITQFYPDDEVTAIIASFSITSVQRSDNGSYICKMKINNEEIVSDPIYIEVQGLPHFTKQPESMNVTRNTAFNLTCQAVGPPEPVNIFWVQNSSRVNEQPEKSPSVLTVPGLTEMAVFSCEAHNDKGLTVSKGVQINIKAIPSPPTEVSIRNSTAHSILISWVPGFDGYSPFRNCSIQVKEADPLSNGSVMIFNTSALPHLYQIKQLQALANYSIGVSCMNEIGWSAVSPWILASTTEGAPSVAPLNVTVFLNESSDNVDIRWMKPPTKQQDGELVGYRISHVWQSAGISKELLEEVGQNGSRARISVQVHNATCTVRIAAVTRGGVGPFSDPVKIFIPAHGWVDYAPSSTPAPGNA

[4] = target: T3, rhDtk-Fc (R and D Systems, cat N° 859-DK) (human, UniProt Q06418 41-428, limits assumed); test: ELISA on coated protein
T3 construct: Bought protein; also called Tyro3; not shown: Fc of human IgG
T3 sequence (looked up): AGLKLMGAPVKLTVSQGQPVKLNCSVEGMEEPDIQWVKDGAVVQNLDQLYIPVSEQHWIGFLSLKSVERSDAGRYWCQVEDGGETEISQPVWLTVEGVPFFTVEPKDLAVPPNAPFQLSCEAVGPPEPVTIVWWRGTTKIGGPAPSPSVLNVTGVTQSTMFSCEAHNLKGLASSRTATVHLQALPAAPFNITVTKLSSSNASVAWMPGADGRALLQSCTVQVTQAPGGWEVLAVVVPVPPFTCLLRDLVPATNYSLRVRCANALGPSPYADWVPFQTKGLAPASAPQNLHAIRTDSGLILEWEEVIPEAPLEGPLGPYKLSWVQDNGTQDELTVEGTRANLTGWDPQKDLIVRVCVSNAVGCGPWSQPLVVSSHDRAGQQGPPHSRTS

[5] = target: T4, recombinant human Axl-Fc (R and D Systems, cat N° 154AL/CF) (human, UniProt P30530 26-451); test: ELISA on coated rhAxl-Fc
T4 construct: Bought protein; also called rhAxl-Fc; rh Axl-Fc protein; not shown: Fc of human IgG (coating control with anti-human IgG Fc)
T4 sequence: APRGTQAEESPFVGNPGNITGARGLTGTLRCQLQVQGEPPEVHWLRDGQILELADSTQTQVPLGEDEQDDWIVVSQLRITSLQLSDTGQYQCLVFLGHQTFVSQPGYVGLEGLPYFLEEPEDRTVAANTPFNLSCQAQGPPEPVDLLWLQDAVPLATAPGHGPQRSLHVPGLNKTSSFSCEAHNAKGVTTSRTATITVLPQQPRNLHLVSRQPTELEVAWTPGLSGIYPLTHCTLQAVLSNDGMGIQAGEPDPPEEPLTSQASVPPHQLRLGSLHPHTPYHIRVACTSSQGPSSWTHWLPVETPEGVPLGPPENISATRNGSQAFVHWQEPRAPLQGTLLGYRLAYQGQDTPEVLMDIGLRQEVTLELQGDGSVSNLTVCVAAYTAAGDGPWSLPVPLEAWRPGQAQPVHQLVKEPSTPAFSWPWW

binding on rhMer (ELISA) [2]: does not bind
binding result [3]: no binding
binding result [4]: no binding
binding result [5]: binds
B1: m1613F12 (murine 1613F12, hybridoma CNCM I-4505) (antibody, V domains shown)
VH: EVHLQQSGAELVKPGASVKLSCTASGFNIRDTYIHWVKQRPEQGLEWIGRLDPANGHTKYGPNFQGRATMTSDTSSNTAYLQLSSLTSEDTAVYYCARGAYYYGSSGLFYFDYWGQGTTLSVSS
VL: DVQITQSPSYLATSPGETITINCRASKSISKYLAWYQEKPGKTNKLLIYSGSTLQSGVPSRFSGSGSGTDFTLTISSLEPEDFAMYFCQQHHEYPLTFGAGTELELK
notes: Murine monoclonal antibody; also called Axl antibody
internalization (membrane and intracellular staining) [1]: internalization of 1613F12 into SN12C cells
